Several values for one entry are separate records, joined by “and”; a condition that tells them apart may be missing. Identical values can stand only once.
Biological target: HRgpA-6H (Porphyromonas gingivalis) (UniProt P28784)
Assay: ELISA, coated HRgpA-6H

UniProt P28784, sequence (P28784 228-860 limits assumed): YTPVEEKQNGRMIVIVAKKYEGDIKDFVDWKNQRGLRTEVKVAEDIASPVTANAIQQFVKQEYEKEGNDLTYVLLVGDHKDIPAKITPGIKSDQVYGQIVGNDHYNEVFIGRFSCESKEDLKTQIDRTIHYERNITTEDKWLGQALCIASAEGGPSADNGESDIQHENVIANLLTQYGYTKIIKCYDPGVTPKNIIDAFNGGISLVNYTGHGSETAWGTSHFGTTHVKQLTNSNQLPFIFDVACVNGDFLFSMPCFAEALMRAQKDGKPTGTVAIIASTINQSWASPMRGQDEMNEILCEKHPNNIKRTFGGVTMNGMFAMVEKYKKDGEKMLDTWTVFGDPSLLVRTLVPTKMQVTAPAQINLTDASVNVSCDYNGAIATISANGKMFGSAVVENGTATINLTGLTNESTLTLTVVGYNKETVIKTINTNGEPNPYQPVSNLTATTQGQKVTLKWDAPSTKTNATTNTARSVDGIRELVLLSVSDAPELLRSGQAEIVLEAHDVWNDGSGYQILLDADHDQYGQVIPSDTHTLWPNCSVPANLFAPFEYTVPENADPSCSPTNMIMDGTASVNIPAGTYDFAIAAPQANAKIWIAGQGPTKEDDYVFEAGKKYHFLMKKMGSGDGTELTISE

Binder	Ratio OD(Variant)/OD(WT)	OD450 nm
KB001 mouse Fab VL T52A (Fab, V domains shown) VH: EVQLKQSGPGLVAPSQSLSITCTVSGFSLSIYSVHWVRQPPGKGLEWLGMIWGGGSSDYNSALKSRLSISKDNSKSQVFLKMNSLQTDDTAMYYCARNGNFYAMDYWGQGTSVTVSS VL: QIVLTQSPAIMSASLGERVTMTCTASSSVSSSFLHWYQQKPGSSPQLWIYSASNLASGVPARFSGSGSGTSYSLTISSMEAEDAATYYCHQYHHSPYIYTFGGGTKLEIK	1.17 and 1.08 (2×) and 0.993	–
KB001 mouse Fab VL S57N (Fab, V domains shown) VH: EVQLKQSGPGLVAPSQSLSITCTVSGFSLSIYSVHWVRQPPGKGLEWLGMIWGGGSSDYNSALKSRLSISKDNSKSQVFLKMNSLQTDDTAMYYCARNGNFYAMDYWGQGTSVTVSS VL: QIVLTQSPAIMSASLGERVTMTCTASSSVSSSFLHWYQQKPGSSPQLWIYSTSNLANGVPARFSGSGSGTSYSLTISSMEAEDAATYYCHQYHHSPYIYTFGGGTKLEIK	1.05	0.857
KB001 mouse Fab VL N54S (Fab, V domains shown) VH: EVQLKQSGPGLVAPSQSLSITCTVSGFSLSIYSVHWVRQPPGKGLEWLGMIWGGGSSDYNSALKSRLSISKDNSKSQVFLKMNSLQTDDTAMYYCARNGNFYAMDYWGQGTSVTVSS VL: QIVLTQSPAIMSASLGERVTMTCTASSSVSSSFLHWYQQKPGSSPQLWIYSTSSLASGVPARFSGSGSGTSYSLTISSMEAEDAATYYCHQYHHSPYIYTFGGGTKLEIK	1.07 and 0.934 and 0.99	0.835 and 0.732 and 0.776
KB001 mouse Fab VL S53Q (Fab, V domains shown) VH: EVQLKQSGPGLVAPSQSLSITCTVSGFSLSIYSVHWVRQPPGKGLEWLGMIWGGGSSDYNSALKSRLSISKDNSKSQVFLKMNSLQTDDTAMYYCARNGNFYAMDYWGQGTSVTVSS VL: QIVLTQSPAIMSASLGERVTMTCTASSSVSSSFLHWYQQKPGSSPQLWIYSTQNLASGVPARFSGSGSGTSYSLTISSMEAEDAATYYCHQYHHSPYIYTFGGGTKLEIK	1.06 and 0.954 and 0.922	0.835 and 0.751 and 0.726
KB001 mouse Fab VL S53N (Fab, V domains shown) VH: EVQLKQSGPGLVAPSQSLSITCTVSGFSLSIYSVHWVRQPPGKGLEWLGMIWGGGSSDYNSALKSRLSISKDNSKSQVFLKMNSLQTDDTAMYYCARNGNFYAMDYWGQGTSVTVSS VL: QIVLTQSPAIMSASLGERVTMTCTASSSVSSSFLHWYQQKPGSSPQLWIYSTNNLASGVPARFSGSGSGTSYSLTISSMEAEDAATYYCHQYHHSPYIYTFGGGTKLEIK	1.06 and 0.898	0.838 and 0.707
KB001 mouse Fab VL N54R (Fab, V domains shown) VH: EVQLKQSGPGLVAPSQSLSITCTVSGFSLSIYSVHWVRQPPGKGLEWLGMIWGGGSSDYNSALKSRLSISKDNSKSQVFLKMNSLQTDDTAMYYCARNGNFYAMDYWGQGTSVTVSS VL: QIVLTQSPAIMSASLGERVTMTCTASSSVSSSFLHWYQQKPGSSPQLWIYSTSRLASGVPARFSGSGSGTSYSLTISSMEAEDAATYYCHQYHHSPYIYTFGGGTKLEIK	1.12	0.876
KB001 mouse Fab VL H90W (Fab, V domains shown) VH: EVQLKQSGPGLVAPSQSLSITCTVSGFSLSIYSVHWVRQPPGKGLEWLGMIWGGGSSDYNSALKSRLSISKDNSKSQVFLKMNSLQTDDTAMYYCARNGNFYAMDYWGQGTSVTVSS VL: QIVLTQSPAIMSASLGERVTMTCTASSSVSSSFLHWYQQKPGSSPQLWIYSTSNLASGVPARFSGSGSGTSYSLTISSMEAEDAATYYCWQYHHSPYIYTFGGGTKLEIK	1.06	0.913
KB001 mouse Fab VL S57Q (Fab, V domains shown) VH: EVQLKQSGPGLVAPSQSLSITCTVSGFSLSIYSVHWVRQPPGKGLEWLGMIWGGGSSDYNSALKSRLSISKDNSKSQVFLKMNSLQTDDTAMYYCARNGNFYAMDYWGQGTSVTVSS VL: QIVLTQSPAIMSASLGERVTMTCTASSSVSSSFLHWYQQKPGSSPQLWIYSTSNLAQGVPARFSGSGSGTSYSLTISSMEAEDAATYYCHQYHHSPYIYTFGGGTKLEIK	1.05 and 1.03	0.858 and 0.838
KB001 mouse Fab VL S53K (Fab, V domains shown) VH: EVQLKQSGPGLVAPSQSLSITCTVSGFSLSIYSVHWVRQPPGKGLEWLGMIWGGGSSDYNSALKSRLSISKDNSKSQVFLKMNSLQTDDTAMYYCARNGNFYAMDYWGQGTSVTVSS VL: QIVLTQSPAIMSASLGERVTMTCTASSSVSSSFLHWYQQKPGSSPQLWIYSTKNLASGVPARFSGSGSGTSYSLTISSMEAEDAATYYCHQYHHSPYIYTFGGGTKLEIK	1.07	0.841
KB001 mouse Fab VL S57T (Fab, V domains shown) VH: EVQLKQSGPGLVAPSQSLSITCTVSGFSLSIYSVHWVRQPPGKGLEWLGMIWGGGSSDYNSALKSRLSISKDNSKSQVFLKMNSLQTDDTAMYYCARNGNFYAMDYWGQGTSVTVSS VL: QIVLTQSPAIMSASLGERVTMTCTASSSVSSSFLHWYQQKPGSSPQLWIYSTSNLATGVPARFSGSGSGTSYSLTISSMEAEDAATYYCHQYHHSPYIYTFGGGTKLEIK	1.03	0.843
KB001 mouse Fab VL S95Q (Fab, V domains shown) VH: EVQLKQSGPGLVAPSQSLSITCTVSGFSLSIYSVHWVRQPPGKGLEWLGMIWGGGSSDYNSALKSRLSISKDNSKSQVFLKMNSLQTDDTAMYYCARNGNFYAMDYWGQGTSVTVSS VL: QIVLTQSPAIMSASLGERVTMTCTASSSVSSSFLHWYQQKPGSSPQLWIYSTSNLASGVPARFSGSGSGTSYSLTISSMEAEDAATYYCHQYHHQPYIYTFGGGTKLEIK	1.01 (2×) and 1.02	0.931 and 0.936 and 0.927
KB001 mouse Fab VL S57G (Fab, V domains shown) VH: EVQLKQSGPGLVAPSQSLSITCTVSGFSLSIYSVHWVRQPPGKGLEWLGMIWGGGSSDYNSALKSRLSISKDNSKSQVFLKMNSLQTDDTAMYYCARNGNFYAMDYWGQGTSVTVSS VL: QIVLTQSPAIMSASLGERVTMTCTASSSVSSSFLHWYQQKPGSSPQLWIYSTSNLAGGVPARFSGSGSGTSYSLTISSMEAEDAATYYCHQYHHSPYIYTFGGGTKLEIK	1.07 and 1.01	0.873 and 0.825
KB001 mouse Fab VL S57E (Fab, V domains shown) VH: EVQLKQSGPGLVAPSQSLSITCTVSGFSLSIYSVHWVRQPPGKGLEWLGMIWGGGSSDYNSALKSRLSISKDNSKSQVFLKMNSLQTDDTAMYYCARNGNFYAMDYWGQGTSVTVSS VL: QIVLTQSPAIMSASLGERVTMTCTASSSVSSSFLHWYQQKPGSSPQLWIYSTSNLAEGVPARFSGSGSGTSYSLTISSMEAEDAATYYCHQYHHSPYIYTFGGGTKLEIK	1.03	0.843
KB001 mouse Fab VL T52S (Fab, V domains shown) VH: EVQLKQSGPGLVAPSQSLSITCTVSGFSLSIYSVHWVRQPPGKGLEWLGMIWGGGSSDYNSALKSRLSISKDNSKSQVFLKMNSLQTDDTAMYYCARNGNFYAMDYWGQGTSVTVSS VL: QIVLTQSPAIMSASLGERVTMTCTASSSVSSSFLHWYQQKPGSSPQLWIYSSSNLASGVPARFSGSGSGTSYSLTISSMEAEDAATYYCHQYHHSPYIYTFGGGTKLEIK	1.06	0.833
KB001 mouse Fab VL N54Q (Fab, V domains shown) VH: EVQLKQSGPGLVAPSQSLSITCTVSGFSLSIYSVHWVRQPPGKGLEWLGMIWGGGSSDYNSALKSRLSISKDNSKSQVFLKMNSLQTDDTAMYYCARNGNFYAMDYWGQGTSVTVSS VL: QIVLTQSPAIMSASLGERVTMTCTASSSVSSSFLHWYQQKPGSSPQLWIYSTSQLASGVPARFSGSGSGTSYSLTISSMEAEDAATYYCHQYHHSPYIYTFGGGTKLEIK	1.11	0.868
KB001 mouse Fab VL S57P (Fab, V domains shown) VH: EVQLKQSGPGLVAPSQSLSITCTVSGFSLSIYSVHWVRQPPGKGLEWLGMIWGGGSSDYNSALKSRLSISKDNSKSQVFLKMNSLQTDDTAMYYCARNGNFYAMDYWGQGTSVTVSS VL: QIVLTQSPAIMSASLGERVTMTCTASSSVSSSFLHWYQQKPGSSPQLWIYSTSNLAPGVPARFSGSGSGTSYSLTISSMEAEDAATYYCHQYHHSPYIYTFGGGTKLEIK	1.05	0.858
KB001 mouse Fab VL S57R (Fab, V domains shown) VH: EVQLKQSGPGLVAPSQSLSITCTVSGFSLSIYSVHWVRQPPGKGLEWLGMIWGGGSSDYNSALKSRLSISKDNSKSQVFLKMNSLQTDDTAMYYCARNGNFYAMDYWGQGTSVTVSS VL: QIVLTQSPAIMSASLGERVTMTCTASSSVSSSFLHWYQQKPGSSPQLWIYSTSNLARGVPARFSGSGSGTSYSLTISSMEAEDAATYYCHQYHHSPYIYTFGGGTKLEIK	1.04	0.845 and 0.849
KB001 mouse Fab VL S53H (Fab, V domains shown) VH: EVQLKQSGPGLVAPSQSLSITCTVSGFSLSIYSVHWVRQPPGKGLEWLGMIWGGGSSDYNSALKSRLSISKDNSKSQVFLKMNSLQTDDTAMYYCARNGNFYAMDYWGQGTSVTVSS VL: QIVLTQSPAIMSASLGERVTMTCTASSSVSSSFLHWYQQKPGSSPQLWIYSTHNLASGVPARFSGSGSGTSYSLTISSMEAEDAATYYCHQYHHSPYIYTFGGGTKLEIK	1.05 and 0.987	0.827 and 0.777
KB001 mouse Fab VL L55N (Fab, V domains shown) VH: EVQLKQSGPGLVAPSQSLSITCTVSGFSLSIYSVHWVRQPPGKGLEWLGMIWGGGSSDYNSALKSRLSISKDNSKSQVFLKMNSLQTDDTAMYYCARNGNFYAMDYWGQGTSVTVSS VL: QIVLTQSPAIMSASLGERVTMTCTASSSVSSSFLHWYQQKPGSSPQLWIYSTSNNASGVPARFSGSGSGTSYSLTISSMEAEDAATYYCHQYHHSPYIYTFGGGTKLEIK	1.04 (2×) and 0.992	0.816 and 0.815 and 0.777
KB001 mouse Fab VL L55P (Fab, V domains shown) VH: EVQLKQSGPGLVAPSQSLSITCTVSGFSLSIYSVHWVRQPPGKGLEWLGMIWGGGSSDYNSALKSRLSISKDNSKSQVFLKMNSLQTDDTAMYYCARNGNFYAMDYWGQGTSVTVSS VL: QIVLTQSPAIMSASLGERVTMTCTASSSVSSSFLHWYQQKPGSSPQLWIYSTSNPASGVPARFSGSGSGTSYSLTISSMEAEDAATYYCHQYHHSPYIYTFGGGTKLEIK	1.06 and 0.975 and 0.924	0.827 and 0.764 and 0.724

From US20240400654A1
